This passage reports Kd results from article PMC5941314, “Structural insights into the nanomolar affinity of RING E3 ligase ZNRF1 for Ube2N and its functional implications” (Biochemical Journal, 2018).

Common to all, as to conditions: both partners purified
In test [1] the target is T1, Ube2N^R14E (UniProt P61088 1-152, R14E).
T1 construct: Ube2N, ubiquitin-conjugating enzyme E2 N, with R14E; source: E. coli Rossetta2 (DE3), purified (ion exchange, SEC)
T1 sequence (looked up): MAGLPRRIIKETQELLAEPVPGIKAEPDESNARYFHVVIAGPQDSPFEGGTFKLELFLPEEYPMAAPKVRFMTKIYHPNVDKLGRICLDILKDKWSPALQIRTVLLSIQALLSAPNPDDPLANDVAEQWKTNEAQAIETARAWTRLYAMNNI
As to the kind of experiment: ITC; ZNRF1 construct (10–30 µM) in the cell, E2 in the syringe; 25°C; 20 mM sodium phosphate pH 8.0, 150 mM NaCl; single site model.

For test [2], the target named is T2, Ube2N^R14D (UniProt P61088 1-152, R14D).
T2 construct: Ube2N, ubiquitin-conjugating enzyme E2 N, with R14D; source: E. coli Rossetta2 (DE3), purified (ion exchange, SEC)
T2 sequence (looked up): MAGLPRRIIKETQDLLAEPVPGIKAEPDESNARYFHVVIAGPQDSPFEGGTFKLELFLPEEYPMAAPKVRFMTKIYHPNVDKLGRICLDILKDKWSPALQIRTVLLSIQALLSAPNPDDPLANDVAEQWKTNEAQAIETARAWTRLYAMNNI
The description is as above.

In test [3] the target is T3, Ube2N (UniProt P61088 1-152).
T3 construct: Ube2N, ubiquitin-conjugating enzyme E2 N; also called wtUbe2N; source: E. coli Rossetta2 (DE3), purified (ion exchange, SEC)
T3 sequence (looked up): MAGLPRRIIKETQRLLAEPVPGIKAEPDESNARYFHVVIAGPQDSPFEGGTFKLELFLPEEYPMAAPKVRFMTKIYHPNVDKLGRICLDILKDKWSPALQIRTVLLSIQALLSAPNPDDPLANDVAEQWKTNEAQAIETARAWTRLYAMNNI
Described as above.

Test [4] has as its target T4, Ube2N^R14A (UniProt P61088 1-152, R14A).
T4 construct: Ube2N, ubiquitin-conjugating enzyme E2 N, with R14A; source: E. coli Rossetta2 (DE3), purified (ion exchange, SEC)
T4 sequence (looked up): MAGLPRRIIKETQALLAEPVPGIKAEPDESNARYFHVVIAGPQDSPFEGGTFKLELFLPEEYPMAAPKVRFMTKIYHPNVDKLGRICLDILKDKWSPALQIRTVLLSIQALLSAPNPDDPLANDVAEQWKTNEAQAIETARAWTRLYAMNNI
The test is described as above.

Test [5] deals with T5, Ube2W (UniProt Q96B02 1-151).
T5 construct: Ube2W, ubiquitin-conjugating enzyme E2 W; source: E. coli Rossetta2 (DE3), purified (ion exchange, SEC)
The description is as above.

Test [6] addresses T6, Ube2N^S96R (UniProt P61088 1-152, S96R).
T6 construct: Ube2N, ubiquitin-conjugating enzyme E2 N, with S96R; source: E. coli Rossetta2 (DE3), purified (ion exchange, SEC)
T6 sequence (looked up): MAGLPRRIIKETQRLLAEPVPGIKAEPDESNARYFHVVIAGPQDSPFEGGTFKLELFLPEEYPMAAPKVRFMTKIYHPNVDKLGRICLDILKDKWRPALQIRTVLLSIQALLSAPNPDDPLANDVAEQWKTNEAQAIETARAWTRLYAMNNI
The test is described as above.

For test [7], the target named is T7, Ube2N^A98T (UniProt P61088 1-152, A98T).
T7 construct: Ube2N, ubiquitin-conjugating enzyme E2 N, with A98T; source: E. coli Rossetta2 (DE3), purified (ion exchange, SEC)
T7 sequence (looked up): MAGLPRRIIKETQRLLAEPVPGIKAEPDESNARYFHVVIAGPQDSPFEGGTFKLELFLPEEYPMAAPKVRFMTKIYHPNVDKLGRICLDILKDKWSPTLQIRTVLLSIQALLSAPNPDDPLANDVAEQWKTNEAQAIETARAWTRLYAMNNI
The description is as above.

The target in test [8] is T8, Ube2N/Ube2V1 complex (UniProt P61088 1-152; Q13404 1-147).
T8 construct: Ube2N, ubiquitin-conjugating enzyme E2 N; Ube2V1, ubiquitin-conjugating enzyme E2 variant 1; also called Ube2N/V1; source: E. coli Rossetta2 (DE3), each purified, mixed in stoichiometric amounts, complex isolated by SEC
The test is described as above.

For test [9], the target named is T9, Ube2D2 (UniProt P62837 1-147).
T9 construct: Ube2D2, ubiquitin-conjugating enzyme E2 D2; also called wtUbe2D2; wild-type Ube2D2; source: E. coli Rossetta2 (DE3), purified (ion exchange, SEC)
The description is as above.

The target of test [10] is T3, Ube2N. Description: ITC; ZNRF1^CTD in the cell, Ube2N in the syringe; 25°C; Na-phosphate pH 8.0, 300 mM NaCl; single site model.
The target in test [11] is T3, Ube2N. Description: ITC; ZNRF1^CTD in the cell, Ube2N in the syringe; 25°C; Na-phosphate pH 8.0, 450 mM NaCl; single site model.

T8 sequence (Q13404 whole entry, one chain of several): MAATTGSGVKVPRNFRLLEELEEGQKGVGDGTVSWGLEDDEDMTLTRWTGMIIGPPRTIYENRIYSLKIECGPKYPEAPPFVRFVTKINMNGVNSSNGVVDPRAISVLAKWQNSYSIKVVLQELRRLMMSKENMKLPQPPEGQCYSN

B1: ZNRF1^CTD (C-terminal domain of ZNRF1, residues 139–227) (domain or fragment, UniProt Q8ND25 139-227, looked up)
chain: SHSGFKCPICSKSVASDEMEMHFIMCLSKPRLSYNDDVLTKDAGECVICLEELLQGDTIARLPCLCIYHKSCIDSWFEVNRSCPEHPAD
notes: ZNRF1, RING E3 ubiquitin ligase, residues 139-227 of the full-length protein (ZnF and RING domains); also called ZNRF1 C-terminal domain; ZRNF1^CTD; source: E. coli Rossetta2 (DE3), purified (HisTrap, SEC)
Regarding B1, the Kd in test [1] turned out to be 1080 nM; in test [2], 948 nM; in test [3], 38.8 nM; in test [4] it was 320 nM; in test [5], 1090 nM; in test [6], 203 nM. For the same molecule, the Kd in [7] worked out at 408 nM; in [8], 39.2 nM; in test [9], 1130 nM; in [10] it was 171 nM; in [11] it was 225 nM.
